Assay results: paper doi:10.1101/2022.09.29.510206 (bioRxiv, 2022)
Blank lines part the entries; values can stand above or below the binder they belong to.

Molecular target: Norrin (Norrie Disease Protein), biotinylated (UniProt Q00604 25-133, biotin (in vivo biotinylation))
Experiment: SPR

Sequence of Norrin (Norrie Disease Protein), biotinylated (Q00604 25-133): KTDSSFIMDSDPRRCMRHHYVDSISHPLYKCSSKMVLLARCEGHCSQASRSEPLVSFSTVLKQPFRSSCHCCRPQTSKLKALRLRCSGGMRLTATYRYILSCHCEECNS

fold weaker affinity than Fz4_(CRD-Connector): ~53 fold
B1: Fz4_(CRD-Connector) (M105N) mutant (domain or fragment, human, UniProt Q9ULV1 42-179, looked up)
chain: ERRCDPIRISMCQNLGYNVTKMPNLVGHELQTDAELQLTTFTPLIQYGCSSQLQFFLCSVYVPNCTEKINIPIGPCGGMCLSVKRRCEPVLKEFGFAWPESLNCSKFPPQNDHNHMCMEGPGDEEVPLPHKTPIQPGE
modifications: M105N is meant to introduce an N-linked glycosylation site

fold weaker affinity than Fz4_(CRD-Connector): ~55 fold
B2: mouse Fz8_(CRD-Connector), residues 30-170 (domain or fragment, UniProt Q61091 30-170, looked up)
chain: AKELACQEITVPLCKGIGYNYTYMPNQFNHDTQDEAGLEVHQFWPLVEIQCSPDLKFFLCSMYTPICLEDYKKPLPPCRSVCERAKAGCAPLMRQYGFAWPDRMRCDRLPEQGNPDTLCMDYNRTDLTTAAPSPPRRLPPP

fold weaker affinity than Fz4_(CRD-Connector): ~15 fold
B3: chimaera of Fz4CRD+Fz8_(Connector) (domain or fragment, human | mouse, UniProt Q9ULV1 42-151, looked up)
chain: ERRCDPIRISMCQNLGYNVTKMPNLVGHELQTDAELQLTTFTPLIQYGCSSQLQFFLCSVYVPMCTEKINIPIGPCGGMCLSVKRRCEPVLKEFGFAWPESLNCSKFPPQGNPDTLCMDYNRTDLTTAAPSPPRRLPPP
